Among the data in PMC8716928 are relative fluorescence (rf) values, retold here.

Some results are limits rather than exact numbers.

The experiment has as its target Fragment F109–221 of GvpF, split-GFP fusion (Halobacterium salinarum). As to the kind of experiment: split reporter (BiFC, NanoBiT); split-GFP (mGFP2) in Hfx. volcanii transformants, entire Gvp proteins and fragments (Figure 7); arrangement of the GFP portions not stated; relative fluorescence (rf) of cells against untransformed WR340.

B1: GvpA, entire protein, split-GFP fusion (natural protein)
chain: MAQPDSSGLAEVLDRVLDKGVVVDVWARVSLVGIEILTVEARVVAASVDTFLHYAEEIAKIEQAELTAGAEAAPEA
The molecule B1 had a relative fluorescence (rf) of less than 4 rf.

B2: Fragment A1–22 of GvpA, split-GFP fusion (peptide)
chain: MAQPDSSGLAEVLDRVLDKGVV
With B2, the relative fluorescence (rf) was less than 4 rf.
